Where two headings read alike, the source gives them in different places.
Legend:
Test in all cases: SEC-MALS
[1] = biological target: Mouse arrestin-1-(F86A,F198A) (mouse) (UniProt P20443)
[2] = biological target: Mouse arrestin-1-(F86A,F198A, A349V) (mouse) (UniProt P20443)
[3] = biological target: the molecule itself
[4] = biological target: the molecule itself; remark: listed apart in the source
[5] = biological target: the molecule itself; remark: listed apart in the source
[6] = biological target: the molecule itself; remark: listed apart in the source

Mouse arrestin-1-(F86A,F198A) (from UniProt P20443 1-403) (natural protein)
Kd [1]: 537 µM
log Kdim (association constant) [1]: 3.27
stoichiometry N [1]: 2

Mouse arrestin-1-(F86A,F198A, A349V) (from UniProt P20443 1-403) (natural protein)
Kd [2]: 724 µM
log Kdim (association constant) [2]: 3.14
stoichiometry N [2]: 2

B1: wild type human arrestin-1 (natural protein, UniProt P10523 1-405, looked up)
chain: MAASGKTSKSEPNHVIFKKISRDKSVTIYLGNRDYIDHVSQVQPVDGVVLVDPDLVKGKKVYVTLTCAFRYGQEDIDVIGLTFRRDLYFSRVQVYPPVGAASTPTKLQESLLKKLGSNTYPFLLTFPDYLPCSVMLQPAPQDSGKSCGVDFEVKAFATDSTDAEEDKIPKKSSVRLLIRKVQHAPLEMGPQPRAEAAWQFFMSDKPLHLAVSLNKEIYFHGEPIPVTVTVTNNTEKTVKKIKAFVEQVANVVLYSSDYYVKPVAMEEAQEKVPPNSTLTKTLTLLPLLANNRERRGIALDGKIKHEDTNLASSTIIKEGIDRTVLGILVSYQIKVKLTVSGFLGELTSSEVATEVPFRLMHPQPEDPAKESYQDANLVFEEFARHNLKDAGEAEEGKRDKNDVDE
Kd [3]: 2.95 µM
Kd [4]: 224 µM

B2: wild type mouse arrestin-1 (natural protein, UniProt P20443 1-403, looked up)
chain: MAACGKTNKSHVIFKKVSRDKSVTIYLGKRDYVDHVSQVEPVDGVVLVDPELVKGKKVYVTLTCAFRYGQEDIDVMGLTFRRDLYFSRVQVYPPVGAMSVLTQLQESLLKKLGDNTYPFLLTFPDYLPCSVMLQPAPQDVGKSCGVDFEVKAFASDITDPEEDKIPKKSSVRLLIRKVQHAPPEMGPQPSAEASWQFFMSDKPLNLSVSLSKEIYFHGEPIPVTVTVTNNTDKVVKKIKVSVEQIANVVLYSSDYYVKPVASEETQEKVQPNSTLTKTLVLVPLLANNRERRGIALDGKIKHEDTNLASSTIIKEGIDRTVMGILVSYHIKVKLTVSGFLGELTSSEVATEVPFRLMHPQPEDPAKESVQDENLVFEEFARQNLKDTGENTEGKKDEDAGQDE
Kd [3]: 57.5 µM
stoichiometry N [5]: 2
stoichiometry N [6]: 4
Kd [4]: 63.1 µM

Source: publication PMC3062689 (Biochemistry, 2011)
